The values that follow come from patent publication US20240262905A1.

Assay [1] has as its target Insulin. In words: ELISA, plate coated with insulin 5 ug/mL, test article at 100 nM, anti-human Fc-HRP detection. (In an ELISA, binding on a coated surface is turned into a signal by an enzyme label.)
The target in assay [2] is Insulin. Described as above. The source holds these as a separate data set.

Like-named read-outs stand apart in the source and are kept apart here.

With Lenzilumab (antibody), the Insulin polyreactivity score with Insulin [1] is 18; with Insulin [2], 40.

Regarding Elotuzumab (antibody), the Insulin polyreactivity score is 2.2 with Insulin [1] and 1.4 with Insulin [2].
